Experimental data as given in publication PMC5627055, “Interactions of the Bacillus subtilis DnaE polymerase with replisomal proteins modulate its activity and fidelity” (Open Biology, 2017).

Experiments:
DnaE [1] = target: T1, DnaE (Bacillus subtilis, UniProt O34623 1-1115); experiment: EMSA; 10 mM Mg2+; EMSA: 20 mM HEPES pH 7.5, 50 mM NaCl, 10 mM MgCl2, 1 mM DTT, 0.66 nM radiolabelled substrate, 37 C 5 min; 5% native PAGE; conditions: protein: recombinant; tags: N-terminal His6-MBP removed by TEV; 15 bp duplex; 15 nt 5' overhang of template (primer-template)
PolCexo- [2] = target: T2, PolCexo- (Bacillus subtilis, UniProt P13267 1-1437, D425A;E427A); experiment: EMSA; 10 mM Mg2+; no detectable stable complex; EMSA: 20 mM HEPES pH 7.5, 50 mM NaCl, 10 mM MgCl2, 1 mM DTT, 0.66 nM radiolabelled substrate, 37 C 5 min; 5% native PAGE; conditions: protein: recombinant; tags: N-terminal His tag removed by TEV; 15 bp duplex; 15 nt 5' overhang of template (primer-template)
DnaE [3] = target: T1, DnaE; experiment: EMSA; 10 mM Mg2+; multiple shifted bands; EMSA: 20 mM HEPES pH 7.5, 50 mM NaCl, 10 mM MgCl2, 1 mM DTT, 0.66 nM radiolabelled substrate, 37 C 5 min; 5% native PAGE; conditions: protein: recombinant; tags: N-terminal His6-MBP removed by TEV; label: radiolabel at 5' end; single strand
DnaE [4] = target: T1, DnaE; experiment: EMSA; 10 mM Mg2+; 1 uM DnaE; EMSA: 20 mM HEPES pH 7.5, 50 mM NaCl, 10 mM MgCl2, 1 mM DTT, 0.66 nM radiolabelled substrate, 37 C 5 min; 5% native PAGE; conditions: protein: recombinant; tags: N-terminal His6-MBP removed by TEV; 14 bp duplex; 3'-terminal primer mismatch; 15 nt 5' overhang of template
PolCexo- [5] = target: T2, PolCexo-; experiment: EMSA; 10 mM Mg2+; 1 uM PolCexo-; no detectable stable complex; EMSA: 20 mM HEPES pH 7.5, 50 mM NaCl, 10 mM MgCl2, 1 mM DTT, 0.66 nM radiolabelled substrate, 37 C 5 min; 5% native PAGE; conditions: protein: recombinant; tags: N-terminal His tag removed by TEV; 14 bp duplex; 3'-terminal primer mismatch; 15 nt 5' overhang of template
DnaE;PolCexo- = DnaE;PolCexo- (Bacillus subtilis;Bacillus subtilis, UniProt O34623;P13267 1-1115;1-1437, |D425A;E427A); experiment: EMSA; 10 mM Mg2+; 1 uM DnaE, 25-1000 nM PolCexo-; ternary complex; EMSA: 20 mM HEPES pH 7.5, 50 mM NaCl, 10 mM MgCl2, 1 mM DTT, 0.66 nM radiolabelled substrate, 37 C 5 min; 5% native PAGE; conditions: protein: recombinant;recombinant; tags: N-terminal His6-MBP removed by TEV;N-terminal His tag removed by TEV; copies: 1;1; 14 bp duplex; 3'-terminal primer mismatch; 15 nt 5' overhang of template
DnaE;PolC = DnaE;PolC (Bacillus subtilis;Bacillus subtilis, UniProt O34623;P13267 1-1115;1-1437, |); experiment: EMSA; 10 mM Mg2+; 1 uM DnaE, 25-1000 nM PolC; ternary complex, then DNA digested by PolC; EMSA: 20 mM HEPES pH 7.5, 50 mM NaCl, 10 mM MgCl2, 1 mM DTT, 0.66 nM radiolabelled substrate, 37 C 5 min; 5% native PAGE; conditions: protein: recombinant;recombinant; tags: N-terminal His6-MBP removed by TEV;N-terminal His tag removed by TEV; copies: 1;1; 14 bp duplex; 3'-terminal primer mismatch; 15 nt 5' overhang of template
[6] = target: T3, Bacillus subtilis PolC polymerase, wild type (B. subtilis, UniProt P13267 1-1437); experiment: native gel or EMSA; DnaE (1 µM) pre-incubated with radiolabelled primed 3'-mismatch (A:G) DNA substrate (0.66 nM) at 37°C for 5 min, then increasing PolC or PolC_(exo-) (25-1000 nM) and 5 min more at 37°C; 20 mM HEPES pH 7.5, 50 mM NaCl, 10 mM MgCl2, 1 mM DTT; 5% native polyacrylamide gel; ternary template-DnaE-PolC complex read from the shifted DNA; conditions: both partners purified
T3 construct: PolC, DNA polymerase of the C family with internal 3'>5' exonuclease domain, Bacillus subtilis; polC gene cloned into p2BT (p2BT-NT-HT-PolC); The N-terminal His-tag was removed with TEV protease during purification; also called wild-type PolC; source: E. coli BLR(DE3), purified (HisTrap, TEV cleavage, HisTrap flow through, HiTrap Q, Superdex-200); not shown: His-tag, N-terminal, cleaved

[7] = target: T4, Bacillus subtilis PolC_(exo-) (D425A/E427A) (B. subtilis, UniProt P13267 1-1437, D425A | E427A); experiment: as above; conditions: both partners purified
T4 construct: p2BT-NT-HT-PolC_(exo-); source: E. coli BLR(DE3), purified (HisTrap, TEV cleavage, HisTrap flow through, HiTrap Q, Superdex-200); not shown: His-tag, N-terminal, cleaved

B1: DNA-primed 30mer template (dsDNA)
DNA 1: ACACACACACACACACACACACACCCCCTT
DNA 2: AAGGGGGTGTGTGTG
B1: binds (DnaE [1]); no binding (PolCexo- [2]).

ACACACACACACACACACACACACCCCCTT (ssDNA) [ssDNA 30mer]: binds (DnaE [3]).

B2: 3'-mismatch (A:G) DNA-primed 30mer template (dsDNA)
DNA 1: B1 DNA 1
DNA 2: AAGGGGGTGTGTGTA
B2 was tested, and the binding result (DnaE [4]) was “binds”, the binding result (PolCexo- [5]) was “no binding” and the binding signal (DnaE;PolCexo-) was ~4 fold shifted substrate vs DnaE alone (up to). B2: binds (DnaE;PolC).

B3: Bacillus subtilis DnaE polymerase, wild type (enzyme, B. subtilis, UniProt O34623 1-1115, looked up)
chain: MSFVHLQVHSGYSLLNSAAAVEELVSEADRLGYASLALTDDHVMYGAIQFYKACKARGINPIIGLTASVFTDDSELEAYPLVLLAKSNTGYQNLLKISSVLQSKSKGGLKPKWLHSYREGIIAITPGEKGYIETLLEGGLFEQAAQASLEFQSIFGKGAFYFSYQPFKGNQVLSEQILKLSEETGIPVTATGDVHYIRKEDKAAYRCLKAIKAGEKLTDAPAEDLPDLDLKPLEEMQNIYREHPEALQASVEIAEQCRVDVSLGQTRLPSFPTPDGTSADDYLTDICMEGLRSRFGKPDERYLRRLQYELDVIKRMKFSDYFLIVWDFMKHAHEKGIVTGPGRGSAAGSLVAYVLYITDVDPIKHHLLFERFLNPERVSMPDIDIDFPDTRRDEVIQYVQQKYGAMHVAQIITFGTLAAKAALRDVGRVFGVSPKEADQLAKLIPSRPGMTLDEARQQSPQLDKRLRESSLLQQVYSIARKIEGLPRHASTHAAGVVLSEEPLTDVVPLQEGHEGIYLTQYAMDHLEDLGLLKMDFLGLRNLTLIESITSMIEKEENIKIDLSSISYSDDKTFSLLSKGDTTGIFQLESAGMRSVLKRLKPSGLEDIVAVNALYRPGPMENIPLFIDRKHGRAPVHYPHEDLRSILEDTYGVIVYQEQIMMIASRMAGFSLGEADLLRRAVSKKKKEILDRERSHFVEGCLKKEYSVDTANEVYDLIVKFANYGFNRSHAVAYSMIGCQLAYLKAHYPLYFMCGLLTSVIGNEDKISQYLYEAKGSGIRILPPSVNKSSFPFTVENGSVRYSLRAIKSVGVSAVKDIYKARKEKPFEDLFDFCFRVPSKSVNRKMLEALIFSGAMDEFGQNRATLLASIDVALEHAELFAADDDQMGLFLDESFSIKPKYVETEELPLVDLLAFEKETLGIYFSNHPLSAFRKQLTAQGAVSILQAQRAVKRQLSLGVLLSKIKTIRTKTGQNMAFLTLSDETGEMEAVVFPEQFRQLSPVLREGALLFTAGKCEVRQDKIQFIMSRAELLEDMDAEKAPSVYIKIESSQHSQEILAKIKRILLEHKGETGVYLYYERQKQTIKLPESFHINADHQVLYRLKELLGQKNVVLKQW
notes: DnaE, DNA polymerase of the C family (DnaE3 group), Bacillus subtilis; dnaE gene cloned into p2CT (p2CT-NT-HT-DnaE); also called DnaEWT; source: E. coli BL21 (DE3) Rosetta, purified (HisTrap, TEV cleavage, HisTrap flow through, ammonium sulfate, HiTrap Q); not shown: His6, N-terminal, cleaved
B3: binds [6]; binds [7].
